Test [1] addresses recombinant human TLR4 and MD2 complex (human, UniProt O00206 24-631; Q9Y6Y9 19-160). The test is described as follows: MST.
The target of test [2] is recombinant human TLR2 (human, UniProt O60603 21-588). The test is described as follows: MST.
recombinant human TLR2, sequence (O60603 21-588): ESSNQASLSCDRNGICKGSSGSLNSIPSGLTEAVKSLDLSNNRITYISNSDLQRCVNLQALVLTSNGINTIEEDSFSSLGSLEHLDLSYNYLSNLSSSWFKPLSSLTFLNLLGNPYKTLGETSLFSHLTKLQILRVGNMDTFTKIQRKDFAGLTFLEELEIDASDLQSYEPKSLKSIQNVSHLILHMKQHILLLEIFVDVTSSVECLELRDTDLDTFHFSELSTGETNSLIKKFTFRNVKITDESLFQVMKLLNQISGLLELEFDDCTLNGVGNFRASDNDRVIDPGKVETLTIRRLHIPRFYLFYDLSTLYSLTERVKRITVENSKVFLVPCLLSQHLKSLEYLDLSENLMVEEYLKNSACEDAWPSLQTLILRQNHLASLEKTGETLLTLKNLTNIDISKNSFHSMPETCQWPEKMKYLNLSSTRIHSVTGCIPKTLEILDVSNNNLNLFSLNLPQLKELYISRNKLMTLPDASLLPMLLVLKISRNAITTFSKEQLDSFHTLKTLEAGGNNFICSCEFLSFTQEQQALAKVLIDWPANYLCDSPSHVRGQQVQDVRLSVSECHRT

recombinant human TLR4 and MD2 complex, sequence (O00206 24-631, chain 1 of 2): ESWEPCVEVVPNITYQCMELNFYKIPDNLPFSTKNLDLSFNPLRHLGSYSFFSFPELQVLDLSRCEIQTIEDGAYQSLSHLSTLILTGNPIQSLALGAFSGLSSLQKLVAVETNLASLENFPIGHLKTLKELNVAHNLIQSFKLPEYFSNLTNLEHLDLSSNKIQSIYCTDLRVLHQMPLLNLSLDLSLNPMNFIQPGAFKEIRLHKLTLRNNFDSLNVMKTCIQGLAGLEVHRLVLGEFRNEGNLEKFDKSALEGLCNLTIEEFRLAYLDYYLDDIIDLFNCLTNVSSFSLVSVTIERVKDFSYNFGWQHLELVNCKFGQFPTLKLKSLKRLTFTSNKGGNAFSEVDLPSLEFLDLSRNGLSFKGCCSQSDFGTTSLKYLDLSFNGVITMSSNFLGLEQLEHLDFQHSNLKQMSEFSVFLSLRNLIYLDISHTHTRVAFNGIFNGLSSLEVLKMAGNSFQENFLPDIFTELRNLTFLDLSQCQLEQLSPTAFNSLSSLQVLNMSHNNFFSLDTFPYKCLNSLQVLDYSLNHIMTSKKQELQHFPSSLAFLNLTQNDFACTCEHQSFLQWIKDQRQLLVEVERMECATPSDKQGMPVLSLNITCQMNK
recombinant human TLR4 and MD2 complex, sequence (Q9Y6Y9 19-160, chain 2 of 2): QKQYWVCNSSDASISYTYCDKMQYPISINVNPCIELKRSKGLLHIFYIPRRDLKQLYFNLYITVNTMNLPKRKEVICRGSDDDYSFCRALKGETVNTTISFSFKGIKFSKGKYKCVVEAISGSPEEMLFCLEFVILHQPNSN

B1: NT-647-labeled human decorin (natural protein, UniProt P07585 31-359, looked up)
chain: DEASGIGPEVPDDRDFEPSLGPVCPFRCQCHLRVVQCSDLGLDKVPKDLPPDTTLLDLQNNKITEIKDGDFKNLKNLHALILVNNKISKVSPGAFTPLVKLERLYLSKNQLKELPEKMPKTLQELRAHENEITKVRKVTFNGLNQMIVIELGTNPLKSSGIENGAFQGMKKLSYIRIADTNITSIPQGLPPSLTELHLDGNKISRVDAASLKGLNNLAKLGLSFNSISAVDNGSLANTPHLRELHLDNNKLTRVPGGLAEHKYIQVVYLHNNNISVVGSSDFCPPGHNTKKASYSGVSLFSNPVQYWEIQPSTFRCVYVRSAIQLGNYK
modifications: fluorophore NT-647 (Monolith NT protein Labeling Kit)
Take B1: the results for the Kd in test [1] and in test [2] were 37 ± 5 nM and 59 ± 10 nM, respectively.

The values above are taken from PMC5029092 (Science signaling, 2011).
